Assay results from patent US20140349310A1 (Eli Lilly, published 2014).

B1: anti-c-Met therapeutic antibody C8-H241 (human IgG4 subtype) (antibody, V domains shown)
VH: QVQLVQSGAEVKKPGASVKVSCKASGYTFTDYYMHWVRQAPGQGLEWMGRVNPNRRGTTYNQKFEGRVTMTTDTSTSTAYMELRSLRSDDTAVYYCARANWLDYWGQGTTVTVSS
VL: DIQMTQSPSSLSASVGDRVTITCSVSSSVSSIYLHWYQQKPGKAPKLLIYSTSNLASGVPSRFSGSGSGTDFTLTISSLQPEDFATYYCQVYSGYPLTFGGGTKVEIKR
notes: also called mAb C8-H241
B2: anti-c-Met monoclonal antibody OptD11 (mouse IgG1 subtype) (antibody, V domains shown)
VH: EVQLQQSGPELVKPGASVRISCKASGYTFTSRYIHWMKQRPGQGLEWIGWIYPVTGDTYYNEKFKGKATLTSDKSSSTAYMQISSLTSDDSAVYFCARGGGMFYYWGQGTLVTVSA
VL: ETTVTQSPALMAASPGEKVTITCSVSSSISSTNLHWYQQKSETSPKPWIYGTSNLASGVPVRFGGSGSGTSYSLTISSMEAEDAATYYCQQWSSYPYTFGGGTKLEIKR
notes: Murine IgG1; also called mAb OptD11; OptD11 c-Met antibody

Key:
[1] = biological target: T1, human c-Met ECD expressed as Fc fusion protein with a flag- and His-tag (Flis-tag) at the C-terminus of the Fc (human); experiment: SPR (BIAcore): antibody injected over c-Met-ECD-Fc-Flis captured at 130 Ru
T1 construct: also called human c-Met-ECD-Fc-Flis; c-Met-ECD-Fc-Flis
T1 sequence (chain, as listed by the source): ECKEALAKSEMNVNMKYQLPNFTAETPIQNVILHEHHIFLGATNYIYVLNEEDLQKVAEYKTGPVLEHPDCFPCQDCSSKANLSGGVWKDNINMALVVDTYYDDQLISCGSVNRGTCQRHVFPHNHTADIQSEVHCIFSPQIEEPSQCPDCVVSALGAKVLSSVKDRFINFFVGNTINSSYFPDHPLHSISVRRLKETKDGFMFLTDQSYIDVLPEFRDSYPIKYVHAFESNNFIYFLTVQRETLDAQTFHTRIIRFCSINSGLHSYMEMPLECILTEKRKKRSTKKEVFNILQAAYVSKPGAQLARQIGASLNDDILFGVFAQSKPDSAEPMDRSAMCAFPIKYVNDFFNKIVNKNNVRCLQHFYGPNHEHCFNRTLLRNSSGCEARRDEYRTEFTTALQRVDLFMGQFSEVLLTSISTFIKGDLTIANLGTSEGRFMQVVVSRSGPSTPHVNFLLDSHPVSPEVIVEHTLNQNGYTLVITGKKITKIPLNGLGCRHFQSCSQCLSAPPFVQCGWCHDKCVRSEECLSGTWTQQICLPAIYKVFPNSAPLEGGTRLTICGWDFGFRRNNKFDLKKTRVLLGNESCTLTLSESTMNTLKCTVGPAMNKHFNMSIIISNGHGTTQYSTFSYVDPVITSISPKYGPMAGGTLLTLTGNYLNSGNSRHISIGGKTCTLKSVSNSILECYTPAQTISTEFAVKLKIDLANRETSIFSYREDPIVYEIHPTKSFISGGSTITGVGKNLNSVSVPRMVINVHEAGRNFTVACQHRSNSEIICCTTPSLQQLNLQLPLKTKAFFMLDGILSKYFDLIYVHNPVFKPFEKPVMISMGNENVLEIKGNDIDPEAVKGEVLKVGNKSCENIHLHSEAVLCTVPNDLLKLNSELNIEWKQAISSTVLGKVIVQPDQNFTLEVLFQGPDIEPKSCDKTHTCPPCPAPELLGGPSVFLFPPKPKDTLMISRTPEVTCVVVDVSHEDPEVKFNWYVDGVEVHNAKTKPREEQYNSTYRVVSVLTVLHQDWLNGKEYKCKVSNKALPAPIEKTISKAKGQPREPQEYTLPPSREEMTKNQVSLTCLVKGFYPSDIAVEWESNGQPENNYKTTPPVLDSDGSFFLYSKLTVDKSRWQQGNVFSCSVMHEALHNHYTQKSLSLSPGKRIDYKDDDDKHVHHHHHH

[2] = biological target: B1; experiment: ELISA control: 2 µg/mL C8-H241 (human IgG4 subtype) coated, no cMet ECD, 0.5 µg/mL biotinylated OptD11 detection
[3] = biological target: T1, human c-Met ECD expressed as Fc fusion …; experiment: SPR (BIAcore): antibody injected over c-Met-ECD-Fc-Flis captured at 130 Ru; the sequential experiment also includes C8-H241
[4] = biological target: T1, human c-Met ECD expressed as Fc fusion …; experiment: SPR (Biacore): antibody captured by goat anti-mouse Fc, c-Met ECD-Fc-Flis as analyte, 25 C, 1:1 Langmuir model
Experimental: (§1) Briefly described, the anti-c-Met monoclonal antibody of the invention may be dissolved in HBS-EP buffer (150 mM sodium chloride, 3 mM EDTA, 0.005% (w/v) surfactant P-20, and 10 mM N-2-hydroxyethylpiperazine-N′-2-ethanesulfonic acid (HEPES) at pH 7.4; #BR-1001-88). Goat anti-mouse Fc antibody is immobilized on flow cells 1 to 4 of a CM5 sensor chip at a level of 4000 response units (RUs) using amine coupling chemistry to capture anti-c-Met antibodies.
(§2) Binding may be evaluated using multiple analytical cycles. Each cycle is performed at a flow rate of 50 μl/minute, and may consist of the following steps: injection of about 10 μl of an anti-c-Met monoclonal antibody at 10 μg/ml aiming at a capture of 40-100 RUs, injection of 250 μl of human or cynomolgus monkey c-Met-Flis-Fc ECD (starting at 100 nM and using two-fold serial dilutions for each cycle) followed by 20 minutes for dissociation, and regeneration using about 30 μl of 10 mM glycine hydrochloride, pH 1.5. Association and dissociation rates for each cycle may be evaluated using a “1:1 (Langmuir) binding” model in the BIAevaluation software 4.1.

[5] = biological target: T2, cynomolgus monkey c-Met ECD expressed as Fc fusion protein with a flag- and His-tag (Flis-tag) at the … (cynomolgus monkey); experiment: as above
T2 construct: also called cynomolgus monkey c-Met-Flis-Fc ECD
T2 sequence (chain, as listed by the source limits assumed): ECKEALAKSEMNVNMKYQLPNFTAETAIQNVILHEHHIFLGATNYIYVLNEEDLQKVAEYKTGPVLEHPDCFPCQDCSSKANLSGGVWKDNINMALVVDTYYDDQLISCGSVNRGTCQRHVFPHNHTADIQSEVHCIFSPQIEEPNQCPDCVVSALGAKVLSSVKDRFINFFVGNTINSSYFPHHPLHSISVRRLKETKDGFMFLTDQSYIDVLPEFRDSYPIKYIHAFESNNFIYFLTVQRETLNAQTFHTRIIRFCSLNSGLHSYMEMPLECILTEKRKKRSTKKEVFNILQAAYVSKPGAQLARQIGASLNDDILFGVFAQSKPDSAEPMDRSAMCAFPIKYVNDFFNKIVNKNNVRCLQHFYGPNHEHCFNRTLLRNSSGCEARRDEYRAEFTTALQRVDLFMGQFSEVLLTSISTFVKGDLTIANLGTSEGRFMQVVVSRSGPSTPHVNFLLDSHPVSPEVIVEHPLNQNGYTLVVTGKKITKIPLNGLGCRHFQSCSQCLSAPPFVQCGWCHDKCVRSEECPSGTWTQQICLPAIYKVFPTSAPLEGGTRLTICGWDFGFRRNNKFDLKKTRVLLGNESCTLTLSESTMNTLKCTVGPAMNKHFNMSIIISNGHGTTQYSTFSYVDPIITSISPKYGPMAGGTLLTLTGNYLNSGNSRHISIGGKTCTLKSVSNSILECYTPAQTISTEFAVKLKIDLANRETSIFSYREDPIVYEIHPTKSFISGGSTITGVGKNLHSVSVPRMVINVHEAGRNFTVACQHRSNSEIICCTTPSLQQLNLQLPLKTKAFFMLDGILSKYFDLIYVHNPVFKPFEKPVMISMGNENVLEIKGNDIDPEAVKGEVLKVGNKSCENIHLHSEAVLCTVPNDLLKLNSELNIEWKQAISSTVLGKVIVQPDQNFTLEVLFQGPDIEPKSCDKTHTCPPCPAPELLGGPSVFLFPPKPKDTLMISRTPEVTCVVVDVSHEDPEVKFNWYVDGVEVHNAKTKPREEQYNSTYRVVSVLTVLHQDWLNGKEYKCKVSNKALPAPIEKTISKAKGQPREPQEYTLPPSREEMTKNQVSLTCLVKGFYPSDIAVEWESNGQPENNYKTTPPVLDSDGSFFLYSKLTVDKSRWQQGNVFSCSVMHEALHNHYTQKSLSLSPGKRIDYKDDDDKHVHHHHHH
Experimental: as §1, §2

**Q.** With B1 as the binder, how does the “Stoichiometry (mAb to cMet-Fc)” value [1] read?
**A.** The value was 0.91.

**Q.** Does B2 bind [2]?
**A.** Result: no binding (tested: 0.5 µg/mL)

**Q.** And the “Stoichiometry (mAb to cMet-Fc)” value [3]?
**A.** The value was 0.89.

**Q.** And the Kd [4]?
**A.** Its Kd is 0.12 nM.

**Q.** What about the koff [4] of the same binder?
**A.** The koff was 9e-06 s⁻¹.

**Q.** And the kon [4]?
**A.** The kon was 160000 M⁻¹ s⁻¹.

**Q.** What about the Kd [5] of the same binder?
**A.** The Kd was 0.35 nM.

**Q.** What about the koff [5] of the same binder?
**A.** The koff was 4.7e-05 s⁻¹.

**Q.** What about the kon [5] of the same binder?
**A.** Its kon is 130000 M⁻¹ s⁻¹.
